Assay results: patent US10538802B2, “Polypeptide substrate for the detection of von Williebrand factor cleaving protease ADAMTS13” (IMMUCOR GTI DIAGNOSTICS, INC., priority 2011, dated 2020)

Target: T1, ADAMTS13 (Homo sapiens, UniProt Q76LX8)
T1 construct: tissue Gen-Probe GTI Diagnostics (ATS-13 kit calibrators, controls and proficiency samples); George King Biomedical Inc. (FACT, A-FACT, B-FACT plasmas) ATS-13; host or cells: plasma
T1 sequence (Q76LX8 75-1427): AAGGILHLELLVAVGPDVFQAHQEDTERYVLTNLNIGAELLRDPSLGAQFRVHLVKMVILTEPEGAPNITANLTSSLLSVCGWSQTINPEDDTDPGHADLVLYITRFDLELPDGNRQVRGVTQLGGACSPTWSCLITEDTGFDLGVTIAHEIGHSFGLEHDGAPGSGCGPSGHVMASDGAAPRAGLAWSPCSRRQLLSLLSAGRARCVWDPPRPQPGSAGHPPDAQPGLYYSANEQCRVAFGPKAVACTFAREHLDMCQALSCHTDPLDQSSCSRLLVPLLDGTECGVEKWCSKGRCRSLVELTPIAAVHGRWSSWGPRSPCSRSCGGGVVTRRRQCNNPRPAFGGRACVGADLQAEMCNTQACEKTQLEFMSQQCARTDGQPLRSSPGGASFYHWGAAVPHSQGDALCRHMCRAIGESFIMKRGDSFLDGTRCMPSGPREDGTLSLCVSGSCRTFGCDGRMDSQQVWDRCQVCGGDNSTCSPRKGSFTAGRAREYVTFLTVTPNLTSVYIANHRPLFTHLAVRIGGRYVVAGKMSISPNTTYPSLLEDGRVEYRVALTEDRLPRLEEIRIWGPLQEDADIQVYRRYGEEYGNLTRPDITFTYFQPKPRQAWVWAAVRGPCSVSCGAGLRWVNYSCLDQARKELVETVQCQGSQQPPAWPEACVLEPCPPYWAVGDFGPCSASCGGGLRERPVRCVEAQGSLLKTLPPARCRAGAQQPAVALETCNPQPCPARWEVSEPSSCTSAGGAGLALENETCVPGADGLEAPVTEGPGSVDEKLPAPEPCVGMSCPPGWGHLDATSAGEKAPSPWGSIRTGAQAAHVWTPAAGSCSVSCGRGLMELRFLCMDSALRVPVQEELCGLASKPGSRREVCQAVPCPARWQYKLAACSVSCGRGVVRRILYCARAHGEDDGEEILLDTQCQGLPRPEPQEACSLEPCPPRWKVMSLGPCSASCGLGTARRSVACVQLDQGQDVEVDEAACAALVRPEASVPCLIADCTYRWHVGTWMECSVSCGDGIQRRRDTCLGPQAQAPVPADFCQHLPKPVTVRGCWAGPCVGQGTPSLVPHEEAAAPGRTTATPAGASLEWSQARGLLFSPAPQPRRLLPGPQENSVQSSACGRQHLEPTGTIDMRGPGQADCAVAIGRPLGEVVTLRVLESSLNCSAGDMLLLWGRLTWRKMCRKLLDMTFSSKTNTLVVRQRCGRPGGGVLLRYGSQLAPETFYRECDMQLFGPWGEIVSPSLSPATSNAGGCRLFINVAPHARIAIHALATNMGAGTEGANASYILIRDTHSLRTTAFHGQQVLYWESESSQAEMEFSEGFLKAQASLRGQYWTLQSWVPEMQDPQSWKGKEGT
Assay: ADAMTS13 activity assay with fluorogenic (FRET) polypeptide substrate and diluted plasma samples
Assay type: biochemical
Method: The procedure in this example was performed substantially as described in Kokame, K., Y. Nobe, Y. Kokubo, A. Okayama, and T. Miyata. 2005. FRETS-VWF73, a first fluorogenic substrate for ADAMTS13 assay. Br. J. Haematol. 129:93-100, but using SEQ ID NO: 1 in place of the 73 amino acid substrate described therein. The FRETS-VWF73 substrate solution was dissolved in 25% dimethyl sulphoxide/water to prepare the 100 microM stock solution. The GTI FRET4 SEQ ID NO: 1 was dissolved in 100% DMSO. Both substrates were diluted to equal concentrations using ATS-13 substrate buffer (Gen-Probe GT1 Diagnostics, Inc., U.S.A., Cat#ATS-13).
Plasma samples were diluted according to the ATS-13 Direction Insert using ATS-13 specimen diluent (Gen-Probe GTI Diagnostics, Inc., U.S.A., Cat# ATS-13). The diluted plasma samples were mixed with the diluted substrate and the fluorescence was read at 0, 5, 10, 15, 20, 30, 45 minutes using a Biotek FLX800 at the appropriate excitation and emission wavelengths for each substrate.
The fluorophore-quencher pair in the SEQ ID NO: 1 polypeptide substrate is FAM-5/TQ 2^Tm (Ex 485±20; Em 528±20; AAT Bioquest, Inc. Sunnyvale, Calif. U.S.A.). The fluorophore and quencher pair of FRETS-VWF73 (Nma/Dnp) described in Kokame has been substituted with FAM-5 and TQ_2 respectively in GTI_FRET4 SEQ ID NO: 1. Furthermore, in the SEQ ID NO: 1 polypeptide the position of the fluorophore (FAM-5) and quencher (TQ_2) has been swapped relative to the position of the fluorophore and quencher of the FRETS-VWF73 construct. Therefore, for GTI_FRET4 SEQ ID NO: 1, attachment of the fluorophore (FAM-5) occurs by substituting asparagine with cystine at position 15. The quencher (TQ_2) was attached by substituting glutamine with lysine at position 4 (FIG. 2 and Table 4).
For this experiment, substrate concentration and fluorescence reader settings determined on the previous experiment are used. The specimens tested (listed in Table 3), include a panel of proficiency samples prepared for use with ATS-13 (Gen-Probe GTI Diagnostics, Inc., U.S.A., Cat# ATS-13) which included samples with normal or deficient ADAMTS13 activity levels. In addition, six Factor Assay ConTrol plasma were used (2 FACT, 2 A-FACT and 2 B-FACT, from George King Biomedical Inc., Kansas, USA). The assays for the SEQ ID NO: 1 substrate and for the prior art FRETS-VWF73 assay were performed generally as according to the procedure described in Example 1. Substrate is prepared according to the conditions used for initial testing of the substrate, which prepared the molar amount of SEQ ID NO: 1 polypeptide substrate used in the assay to be equivalent to the molar amount of FRETS-VWF73 used in the prior art. The […] assays were read at 0, 5, 10, 15, 20, 30, 45 minutes.
Testing of substrate for cleavability by ADAMTS13 is determined as is generally described in Example 1. […]

In the case of “DREKAPNLVYMVTGCPASDEIKRLPGDIQVVPIEVIGWPNAPILIQDEETLPREAPDLVLQR [GTI_FRET4]”, the “% Normal ADAMTS13 Values Calculated Using GTI_FRET4 Substrate” value (sample Calibrator D, incubation 15 Minutes) is reported as 58 % Normal, the “% Normal ADAMTS13 Values Calculated Using GTI_FRET4 Substrate” value (sample Calibrator D, incubation 30 Minutes) is reported as 59 % Normal and the “% Normal ADAMTS13 Values Calculated Using GTI_FRET4 Substrate” value (sample Calibrator D, incubation 45 Minutes) is reported as 59 % Normal. The “% Normal ADAMTS13 Values Calculated Using GTI_FRET4 Substrate” value (sample Calibrator D, incubation 60 Minutes) was 60 % Normal, the “% Normal ADAMTS13 Values Calculated Using GTI_FRET4 Substrate” value (sample Calibrator D, incubation 75 Minutes) was 61 % Normal and the “% Normal ADAMTS13 Values Calculated Using GTI_FRET4 Substrate” value (sample Calibrator D, incubation 90 Minutes) was 62 % Normal. The “Increase in Fluorescence Values (X minute - 0 minute Reading)” value (“Increase in Fluorescence Values” below) (sample Calibrator E, 15 min) was 18,718 RFU, the “Increase in Fluorescence Values” value (sample Calibrator E, 30 min) was 35,085 RFU and the “Increase in Fluorescence Values” value (sample Calibrator E, 45 min) was 49,418 RFU. For the same sequence, the “Increase in Fluorescence Values” value (sample Calibrator E, 60 min) was 61,068 RFU, the “Increase in Fluorescence Values” value (sample Calibrator E, 75 min) was 70,603 RFU and the “Increase in Fluorescence Values” value (sample Calibrator E, 90 min) was 82,999 RFU. For the same sequence, the “% Normal ADAMTS13 Values Calculated Using GTI_FRET4 Substrate” value (sample Calibrator E, incubation 15 Minutes) was 101 % Normal, the “% Normal ADAMTS13 Values Calculated Using GTI_FRET4 Substrate” value (sample Calibrator E, incubation 30 Minutes) was 101 % Normal and the “% Normal ADAMTS13 Values Calculated Using GTI_FRET4 Substrate” value (sample Calibrator E, incubation 45 Minutes) was 100 % Normal. The “% Normal ADAMTS13 Values Calculated Using GTI_FRET4 Substrate” value (sample Calibrator E, incubation 60 Minutes) was 100 % Normal, the “% Normal ADAMTS13 Values Calculated Using GTI_FRET4 Substrate” value (sample Calibrator E, incubation 75 Minutes) was 98 % Normal and the “% Normal ADAMTS13 Values Calculated Using GTI_FRET4 Substrate” value (sample Calibrator E, incubation 90 Minutes) was 98 % Normal. The “Increase in Fluorescence Values” value (sample MON110707, 15 min) was 17,881 RFU, the “Increase in Fluorescence Values” value (sample MON110707, 30 min) was 33,432 RFU and the “Increase in Fluorescence Values” value (sample MON110707, 45 min) was 46,848 RFU. The “Increase in Fluorescence Values” value (sample MON110707, 60 min) was 58,747 RFU, the “Increase in Fluorescence Values” value (sample MON110707, 75 min) was 68,370 RFU and the “Increase in Fluorescence Values” value (sample MON110707, 90 min) was 78,371 RFU. The “% Normal ADAMTS13 Values Calculated Using GTI_FRET4 Substrate” value (sample MON110707, incubation 15 Minutes) was 97 % Normal, the “% Normal ADAMTS13 Values Calculated Using GTI_FRET4 Substrate” value (sample MON110707, incubation 30 Minutes) was 96 % Normal and the “% Normal ADAMTS13 Values Calculated Using GTI_FRET4 Substrate” value (sample MON110707, incubation 45 Minutes) was 95 % Normal. For the same sequence, the “% Normal ADAMTS13 Values Calculated Using GTI_FRET4 Substrate” value (sample MON110707, incubation 60 Minutes) was 96 % Normal, the “% Normal ADAMTS13 Values Calculated Using GTI_FRET4 Substrate” value (sample MON110707, incubation 75 Minutes) was 95 % Normal and the “% Normal ADAMTS13 Values Calculated Using GTI_FRET4 Substrate” value (sample MON110707, incubation 90 Minutes) was 92 % Normal. For the same sequence, the “Increase in Fluorescence Values” value (sample Positive Control High, 15 min) was 9,146 RFU, the “Increase in Fluorescence Values” value (sample Positive Control High, 30 min) was 17,281 RFU and the “Increase in Fluorescence Values” value (sample Positive Control High, 45 min) was 24,859 RFU. The “Increase in Fluorescence Values” value (sample Positive Control High, 60 min) was 31,857 RFU, the “Increase in Fluorescence Values” value (sample Positive Control High, 75 min) was 39,838 RFU and the “Increase in Fluorescence Values” value (sample Positive Control High, 90 min) was 47,473 RFU. For the same sequence, the “% Normal ADAMTS13 Values Calculated Using GTI_FRET4 Substrate” value (sample Positive Control High, incubation 15 Minutes) was 48 % Normal, the “% Normal ADAMTS13 Values Calculated Using GTI_FRET4 Substrate” value (sample Positive Control High, incubation 30 Minutes) was 49 % Normal and the “% Normal ADAMTS13 Values Calculated Using GTI_FRET4 Substrate” value (sample Positive Control High, incubation 45 Minutes) was 50 % Normal.
